# Laboratory results published in article PMC3577987 (Journal of molecular biology, 2012).
# B1: Aer2 173–289 K176A E275A (domain or fragment)
# chain: ARIASALDNVSANVMIADNDLNIIYMNRTVSEMLGRAEADIRKQLPNFDAGRLMGANIDVFHKNPAHQRHLLANLTGVHKAELNLGGRRFSLDVVPVFNDANARLGSAVQWTDRTEE
# B2: Aer2 1–402 S183C, MTSSL spin-labeled (domain or fragment)
# chain: MGLFNAHAVAQQRADRIATLLQSFADGQLDTAVGEAPAPGYERLYDSLRALQRQLREQRAELQQVESLEAGLAEMSRQHEAGWIDQTIPAERLEGRAARIAKGVNELVAAHIAVKMKVVSVVTAYGQGNFEPLMDRLPGKKAQITEAIDGVRERLRGAAEATSAQLATAAYNARIKSALDNVCANVMIADNDLNIIYMNRTVSEMLGRAEADIRKQLPNFDAGRLMGANIDVFHKNPAHQRHLLANLTGVHKAELNLGGRRFSLDVVPVFNDANERLGSAVQWTDRTEEHRAEQEVSQLVQAAAAGDFSKRVEEAGKEGFFLRLAKDLNSLVDTADRGLRDVSRMLGALAQGDLTQRIEADYQGTFGQLKDFSNDTAQSLSRMLGQIREAADTINTAASEIA
# modifications: MTSSL nitroxide spin label on C183
# B3: Aer2 1–402 (domain or fragment)
# chain: MGLFNAHAVAQQRADRIATLLQSFADGQLDTAVGEAPAPGYERLYDSLRALQRQLREQRAELQQVESLEAGLAEMSRQHEAGWIDQTIPAERLEGRAARIAKGVNELVAAHIAVKMKVVSVVTAYGQGNFEPLMDRLPGKKAQITEAIDGVRERLRGAAEATSAQLATAAYNARIKSALDNVSANVMIADNDLNIIYMNRTVSEMLGRAEADIRKQLPNFDAGRLMGANIDVFHKNPAHQRHLLANLTGVHKAELNLGGRRFSLDVVPVFNDANERLGSAVQWTDRTEEHRAEQEVSQLVQAAAAGDFSKRVEEAGKEGFFLRLAKDLNSLVDTADRGLRDVSRMLGALAQGDLTQRIEADYQGTFGQLKDFSNDTAQSLSRMLGQIREAADTINTAASEIA
# B4: Aer2 1–317 (domain or fragment)
# chain: MGLFNAHAVAQQRADRIATLLQSFADGQLDTAVGEAPAPGYERLYDSLRALQRQLREQRAELQQVESLEAGLAEMSRQHEAGWIDQTIPAERLEGRAARIAKGVNELVAAHIAVKMKVVSVVTAYGQGNFEPLMDRLPGKKAQITEAIDGVRERLRGAAEATSAQLATAAYNARIKSALDNVSANVMIADNDLNIIYMNRTVSEMLGRAEADIRKQLPNFDAGRLMGANIDVFHKNPAHQRHLLANLTGVHKAELNLGGRRFSLDVVPVFNDANERLGSAVQWTDRTEEHRAEQEVSQLVQAAAAGDFSKRVEEAGK
# Key:
# [1] = biological target: the molecule itself; test: crystal structure
# [2] = biological target: the molecule itself; test: pulsed dipolar ESR
# [3] = biological target: the molecule itself; test: SAXS
Protein,binding result [3],further results
B1,–,binding result [1]: binds
B2,–,binding result [2]: binds
B3,binds,–
B4,binds,–
